± gives the standard deviation of the averaged measurements.

This series deals with Saccharomyces cerevisiae. Briefly: protein stability index of tFT-peptide fusion (C-terminal peptide) (PSI (0-1 scale)); higher = more stable (slower turnover). To be noted: temperature: 30 C. Here is the method:
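MPS profiling in S. cerevisiae of the yeast C-terminome library: the last 12 aa of each annotated ORF are fused to the C-terminus of a sfGFP-mCherry timer, after a GGGS linker. Cells are FACS-sorted into 8 mCherry/sfGFP bins and deep-sequenced. PSI runs from 0 (unstable) to 1 (stable); wild type and das1Δ backgrounds, two technical replicates each.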

[1] abbreviates: genetic background: das1 deletion.

For LPQSTLQENQLS [SKN7 C-terminal 12 aa], the protein stability index amounted to 0.706 ± 0.024 under setting [1] and 0.622 ± 0.028 (genetic background: wild type).

Take LQVSQEFTTKTQ [NUP82 C-terminal 12 aa]: the protein stability index was 0.676 ± 0.034 under setting [1] and 0.709 ± 0.048 (genetic background: wild type).

Turning to LRIVACNSKKSE [TOA2 C-terminal 12 aa], the protein stability index was found to be 0.673 ± 0.027 under setting [1] and 0.649 ± 0.022 (genetic background: wild type).

Take LRSCDLKRKSKK [YLR302C C-terminal 12 aa]: the protein stability index turned out to be 0.678 ± 0.037 under setting [1] and 0.68 ± 0.028 (genetic background: wild type).

Regarding LSDLHIKEAKID [OGG1 C-terminal 12 aa], the protein stability index under setting [1] was 0.7101 ± 0.0056 and the protein stability index (genetic background: wild type) came to 0.568 ± 0.021.

As to LSDLRAWTLKVA [YDR491C C-terminal 12 aa], the protein stability index reads like this: under setting [1], 0.7058 ± 0.0027; (genetic background: wild type) 0.329 ± 0.0064.

For the sequence LSDYLSHDFASC [YNL040W C-terminal 12 aa], the protein stability index reads like this: under setting [1], 0.688 ± 0.011; (genetic background: wild type) 0.694 ± 0.04.

As for LSFFGILKYCFL [TSC3 C-terminal 12 aa], the protein stability index was determined as 0.6491 ± 0.0031 under setting [1] and 0.618 ± 0.027 (genetic background: wild type).

As to LSIAAGVGFALV [GAS1 C-terminal 12 aa], the protein stability index came out at 0.657 ± 0.007 under setting [1] and 0.653 ± 0.0083 (genetic background: wild type).

For “LSKKTSGTHTTH [YBR182C-A C-terminal 12 aa]”, the protein stability index runs as follows: under setting [1], 0.681 ± 0.015; (genetic background: wild type) 0.6949 ± 0.005.

With LSQRAWATKKPI [YJL028W C-terminal 12 aa], the protein stability index under setting [1] was determined as 0.696 ± 0.012 and the protein stability index (genetic background: wild type) came out at 0.732 ± 0.077.

In turn, LSRYTRVLLMFM [YBR178W C-terminal 12 aa] displayed a protein stability index under setting [1] of 0.632 ± 0.02 and a protein stability index (genetic background: wild type) of 0.455 ± 0.014.

For the sequence LSSVKVRQLRNM [RBH2 C-terminal 12 aa], the protein stability index reads like this: under setting [1], 0.681 ± 0.021; (genetic background: wild type) 0.205 ± 0.0043.

Take LSTWDARTPILD [GPI2 C-terminal 12 aa]: the protein stability index reads like this: under setting [1], 0.705 ± 0.0016; (genetic background: wild type) 0.703 ± 0.0087.

Turning to LTALLETVNKYR [GCG1 C-terminal 12 aa], the protein stability index under setting [1] was 0.7 ± 0.016 and the protein stability index (genetic background: wild type) was 0.682 ± 0.014.

With LTTISLYLMLKL [YGL262W C-terminal 12 aa], the protein stability index is, setting by setting: under setting [1], 0.382 ± 0.021; (genetic background: wild type) 0.351 ± 0.0079.

LVAIDPRSEAYC [YMR324C C-terminal 12 aa]: the protein stability index runs as follows: under setting [1], 0.68838 ± 0.00058; (genetic background: wild type) 0.671 ± 0.012.

Consider LVKHTYKRSSSS [VBA1 C-terminal 12 aa], for which the protein stability index is, setting by setting: under setting [1], 0.705 ± 0.029; (genetic background: wild type) 0.656 ± 0.019.

As to “LVSNSDTNIVWP [YMR247W-A C-terminal 12 aa]”, the protein stability index runs as follows: under setting [1], 0.68696 ± 0.00059; (genetic background: wild type) 0.712 ± 0.015.

For LVSQRITGPGVF [ASI2 C-terminal 12 aa], the protein stability index amounted to 0.687 ± 0.0099 under setting [1] and 0.681 ± 0.0099 (genetic background: wild type).

“LWVTLLPEFTNF [YBR121C-A C-terminal 12 aa]”: the protein stability index under setting [1] was 0.768 ± 0.018 and the protein stability index (genetic background: wild type) worked out at 0.75 ± 0.029.

For LYFLVKSFLSIV [HMX1 C-terminal 12 aa], the protein stability index reads like this: under setting [1], 0.668 ± 0.14; (genetic background: wild type) 0.282 ± 0.12.

In the case of MEDEDMVDVIID [ESC2 C-terminal 12 aa], the protein stability index runs as follows: under setting [1], 0.689 ± 0.02; (genetic background: wild type) 0.7232 ± 0.0017.

Consider MGVVAAVGVALL [ECM33 C-terminal 12 aa], for which the protein stability index runs as follows: under setting [1], 0.678 ± 0.019; (genetic background: wild type) 0.642 ± 0.0081.

In the case of MHSNFQNLFNLK [CLB5 C-terminal 12 aa], the protein stability index is, setting by setting: under setting [1], 0.708 ± 0.026; (genetic background: wild type) 0.707 ± 0.026.

MKSKKIDIKGQK [THP3 C-terminal 12 aa] had a protein stability index under setting [1] of 0.705 ± 0.03 and a protein stability index (genetic background: wild type) of 0.665 ± 0.018.

On to “MSLRKYVSVCSM [YHL006W-A C-terminal 12 aa]”, for which the protein stability index was found to be 0.5 ± 0.012 under setting [1] and 0.513 ± 0.0063 (genetic background: wild type).

For the sequence “MVTNDGFGSTVL [YLR379W-A C-terminal 12 aa]”, the protein stability index is 0.698 ± 0.013 under setting [1] and 0.734 ± 0.029 (genetic background: wild type).

With NDDDEDDDDFFD [SDD2 C-terminal 12 aa], the protein stability index runs as follows: under setting [1], 0.723 ± 0.015; (genetic background: wild type) 0.6947 ± 0.0056.

For NDLITYLKKACE [CYC1 C-terminal 12 aa], the protein stability index came to 0.68 ± 0.01 under setting [1] and 0.683 ± 0.011 (genetic background: wild type).

With NDSDGTILIPDI [ZDS2 C-terminal 12 aa], the protein stability index is 0.6982 ± 0.0057 under setting [1] and 0.713 ± 0.041 (genetic background: wild type).

NDSEPESEYQQE [CUB1 C-terminal 12 aa]: the protein stability index is, setting by setting: under setting [1], 0.6922 ± 0.0057; (genetic background: wild type) 0.713 ± 0.0081.

Turning to NEERINSKIFKS [RCF2 C-terminal 12 aa], the protein stability index came to 0.716 ± 0.043 under setting [1] and 0.69629 ± 0.00022 (genetic background: wild type).

For the sequence NENDFNFINWEG [FLO8 C-terminal 12 aa], the protein stability index is 0.741 ± 0.037 under setting [1] and 0.7071 ± 0.0051 (genetic background: wild type).

With NENLSNELQPSL [AME1 C-terminal 12 aa], the protein stability index is, setting by setting: under setting [1], 0.678 ± 0.009; (genetic background: wild type) 0.759 ± 0.072.

Take NEQFDHKFDETL [APL4 C-terminal 12 aa]: the protein stability index under setting [1] amounted to 0.726 ± 0.015 and the protein stability index (genetic background: wild type) stood at 0.671 ± 0.01.

Sequence NFEKPCLIQDGK [FMP48 C-terminal 12 aa] registered a protein stability index under setting [1] of 0.717 ± 0.051 and a protein stability index (genetic background: wild type) of 0.706 ± 0.033.

In the case of NFTIHRPLNNGR [YDL062W C-terminal 12 aa], the protein stability index reads like this: under setting [1], 0.731 ± 0.044; (genetic background: wild type) 0.734 ± 0.027.

In the case of NFTTNEYFIHTS [YNL226W C-terminal 12 aa], the protein stability index under setting [1] came out at 0.7352 ± 0.0013 and the protein stability index (genetic background: wild type) turned out to be 0.737 ± 0.018.

In the case of NGEIMTCWEWKE [HEH2 C-terminal 12 aa], the protein stability index reads like this: under setting [1], 0.691 ± 0.034; (genetic background: wild type) 0.686 ± 0.019.

Consider NGINNSSATYKI [ULA1 C-terminal 12 aa], for which the protein stability index under setting [1] is 0.7027 ± 0.0063 and the protein stability index (genetic background: wild type) was determined as 0.71 ± 0.038.

Take NGLWEQEKTEKR [YKR041W C-terminal 12 aa]: the protein stability index reads like this: under setting [1], 0.716 ± 0.025; (genetic background: wild type) 0.733 ± 0.061.

Turning to NGNNVASLNTKK [TAF12 C-terminal 12 aa], the protein stability index was 0.6865 ± 0.0016 under setting [1] and 0.664 ± 0.011 (genetic background: wild type).

With NGYFGYAPGHYP [OPT2 C-terminal 12 aa], the protein stability index runs as follows: under setting [1], 0.6844 ± 0.0056; (genetic background: wild type) 0.708 ± 0.031.

For the sequence NILPMTYLLKKK [DPI34 C-terminal 12 aa], the protein stability index by setting is: under setting [1], 0.697 ± 0.049; (genetic background: wild type) 0.6405 ± 0.0054.

NILVIVYELLLG [YOS1 C-terminal 12 aa] displayed a protein stability index under setting [1] of 0.215 ± 0.023 and a protein stability index (genetic background: wild type) of 0.203 ± 0.013.

Take NINGTTAAVDVN [PAP1 C-terminal 12 aa]: the protein stability index is 0.661 ± 0.0093 under setting [1] and 0.658 ± 0.01 (genetic background: wild type).

Consider NKTNNKKKHGKK [CLU1 C-terminal 12 aa], for which the protein stability index is, setting by setting: under setting [1], 0.698 ± 0.044; (genetic background: wild type) 0.713 ± 0.024.

In the case of NLEFETEHNVTN [NDC80 C-terminal 12 aa], the protein stability index under setting [1] is 0.677 ± 0.012 and the protein stability index (genetic background: wild type) turned out to be 0.708 ± 0.013.

For NLELGGLNMDFL [PGD1 C-terminal 12 aa], the protein stability index amounted to 0.7171 ± 0.0022 under setting [1] and 0.708 ± 0.047 (genetic background: wild type).

For the sequence NLLRFIVGVDVL [YDR426C C-terminal 12 aa], the protein stability index is, setting by setting: under setting [1], 0.639 ± 0.0092; (genetic background: wild type) 0.638 ± 0.0082.

NNDDSANDLIDR [CCH1 C-terminal 12 aa]: the protein stability index by setting is: under setting [1], 0.649 ± 0.013; (genetic background: wild type) 0.681 ± 0.02.

Turning to NNYNLWFRLSSS [ECL1 C-terminal 12 aa], the protein stability index reads like this: under setting [1], 0.702 ± 0.027; (genetic background: wild type) 0.668 ± 0.055.

For the sequence NPADYLLEFGSG [RTG3 C-terminal 12 aa], the protein stability index came to 0.7103 ± 0.0023 under setting [1] and 0.72 ± 0.029 (genetic background: wild type).

For NPFEYENFINIE [YOR263C C-terminal 12 aa], the protein stability index under setting [1] is 0.7418 ± 0.0062 and the protein stability index (genetic background: wild type) amounted to 0.721 ± 0.052.

With NPVGVPNDDHHH [COX4 C-terminal 12 aa], the protein stability index is, setting by setting: under setting [1], 0.724 ± 0.0031; (genetic background: wild type) 0.668 ± 0.022.

In the case of NQFSQPPSNVEF [SCD6 C-terminal 12 aa], the protein stability index by setting is: under setting [1], 0.684 ± 0.025; (genetic background: wild type) 0.697 ± 0.019.

Regarding NQYANNLNLIDM [YAP1801 C-terminal 12 aa], the protein stability index reads like this: under setting [1], 0.694 ± 0.026; (genetic background: wild type) 0.672 ± 0.029.

In turn, NSDRLSPMEIYN [SPO14 C-terminal 12 aa] registered a protein stability index under setting [1] of 0.7118 ± 0.007 and a protein stability index (genetic background: wild type) of 0.6799 ± 0.0022.

In turn, NSGSAATDSPFN [STS1 C-terminal 12 aa] displayed a protein stability index under setting [1] of 0.727 ± 0.013 and a protein stability index (genetic background: wild type) of 0.674 ± 0.034.

In the case of NSIDIGSRLSLM [PEX1 C-terminal 12 aa], the protein stability index reads like this: under setting [1], 0.704 ± 0.0078; (genetic background: wild type) 0.68911 ± 4.9e-05.

For the sequence NSKVMNIKALDH [MRPL10 C-terminal 12 aa], the protein stability index reads like this: under setting [1], 0.6653 ± 0.0031; (genetic background: wild type) 0.6725 ± 0.0055.

With “NSLTSLSIYAFL [YEL018C-A C-terminal 12 aa]”, the protein stability index amounted to 0.7094 ± 0.0019 under setting [1] and 0.685 ± 0.022 (genetic background: wild type).

Turning to NSNKKKGFKSRR [DRS1 C-terminal 12 aa], the protein stability index reads like this: under setting [1], 0.682 ± 0.017; (genetic background: wild type) 0.732 ± 0.0088.

In the case of NTANRIIEELLK [UBC1 C-terminal 12 aa], the protein stability index stood at 0.68955 ± 0.00029 under setting [1] and 0.67 ± 0.032 (genetic background: wild type).

NTMGKSGRHNIT [YOR282W C-terminal 12 aa]: the protein stability index is 0.6851 ± 0.0044 under setting [1] and 0.685 ± 0.032 (genetic background: wild type).

With NVGKQLSNEIIY [PRP28 C-terminal 12 aa], the protein stability index by setting is: under setting [1], 0.695 ± 0.045; (genetic background: wild type) 0.686 ± 0.042.

For the origin of these results see the supplement of paper PMC10724198.
